Laboratory results reported in IntAct's records for PubMed 14685270.

B1: Eukaryotic translation initiation factor 4E1 (Drosophila melanogaster (Fruit fly)), P48598 (parent)
chain: MQSDFHRMKNFANPKSMFKTSAPSTEQGRPEPPTSAAAPAEAKDVKPKEDPQETGEPAGNTATTTAPAGDDAVRTEHLYKHPLMNVWTLWYLENDRSKSWEDMQNEITSFDTVEDFWSLYNHIKPPSEIKLGSDYSLFKKNIRPMWEDAANKQGGRWVITLNKSSKTDLDNLWLDVLLCLIGEAFDHSDQICGAVINIRGKSNKISIWTADGNNEEAALEIGHKLRDALRLGRNNSLQYQLHKDTMVKQGSNVKSIYTL
partner: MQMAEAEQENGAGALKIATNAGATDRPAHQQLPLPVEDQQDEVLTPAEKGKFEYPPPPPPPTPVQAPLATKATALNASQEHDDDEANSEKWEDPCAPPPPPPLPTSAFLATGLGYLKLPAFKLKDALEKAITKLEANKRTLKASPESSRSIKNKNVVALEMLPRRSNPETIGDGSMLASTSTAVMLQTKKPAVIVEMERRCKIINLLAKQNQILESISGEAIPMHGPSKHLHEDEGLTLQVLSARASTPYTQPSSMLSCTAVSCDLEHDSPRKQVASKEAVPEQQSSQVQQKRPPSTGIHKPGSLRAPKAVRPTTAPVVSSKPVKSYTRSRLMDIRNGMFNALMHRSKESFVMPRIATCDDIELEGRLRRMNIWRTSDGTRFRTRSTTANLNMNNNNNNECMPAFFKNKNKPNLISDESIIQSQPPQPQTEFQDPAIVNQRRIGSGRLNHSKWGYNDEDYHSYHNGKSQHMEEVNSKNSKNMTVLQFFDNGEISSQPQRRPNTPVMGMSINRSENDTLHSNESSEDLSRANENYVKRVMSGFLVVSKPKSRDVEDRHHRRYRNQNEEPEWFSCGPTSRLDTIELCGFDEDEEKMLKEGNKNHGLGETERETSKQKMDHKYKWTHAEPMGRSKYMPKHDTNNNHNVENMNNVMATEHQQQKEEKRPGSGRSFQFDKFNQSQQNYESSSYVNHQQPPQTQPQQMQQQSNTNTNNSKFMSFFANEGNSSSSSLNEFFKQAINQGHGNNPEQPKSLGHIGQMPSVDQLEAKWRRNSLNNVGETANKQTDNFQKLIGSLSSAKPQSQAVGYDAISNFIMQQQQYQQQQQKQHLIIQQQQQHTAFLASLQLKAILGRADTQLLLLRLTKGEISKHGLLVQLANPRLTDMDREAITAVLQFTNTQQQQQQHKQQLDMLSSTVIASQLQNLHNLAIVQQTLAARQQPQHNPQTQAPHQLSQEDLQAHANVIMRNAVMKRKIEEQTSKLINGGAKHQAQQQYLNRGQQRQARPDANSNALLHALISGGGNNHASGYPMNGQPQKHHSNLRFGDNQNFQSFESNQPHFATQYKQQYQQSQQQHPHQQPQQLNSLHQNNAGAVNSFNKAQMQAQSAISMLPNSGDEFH
B2: Protein cup (Drosophila melanogaster (Fruit fly)), Q9VMA3 (parent)
chain: B1 partner
partner: B1 chain

Variants of: B1
Conditions: with cup_drome cup, Q9VMA3
MQSDFHRMKNFANPKSMFKTSAPSTEQGRPEPPTSAAAPAEAKDVKPKEDPQETGEPAGNTATTTAPAGDDAVRTEHLYKHPLMNVWTLWYLENDRSKSWEDMQNAITSFDTVEDFWSLYNHIKPPSEIKLGSDYSLFKKNIRPMWEDAANKQGGRWVITLNKSSKTDLDNLWLDVLLCLIGEAFDHSDQICGAVINIRGKSNKISIWTADGNNEEAALEIGHKLRDALRLGRNNSLQYQLHKDTMVKQGSNVKSIYTL [E106A] was tested, and the “effect of a mutation on the interaction” value was “disrupting interaction”.

Variants of: B2
Conditions: with if4e_drome eIF4E1, P48598
In the case of L364A;L368A, the “effect of a mutation on the interaction” value is reported as “disrupting interaction”.
With Y327A the “effect of a mutation on the interaction” value was “disrupting interaction”.

Variants of: B2
Conditions: with if4e_drome eIF4E1, P48598
Remark: another data set of the same source
In the case of Y327A, the “effect of a mutation on the interaction” value is reported as “decreasing interaction”.
Y327A;L364A;L368A was tested, and the “effect of a mutation on the interaction” value was “disrupting interaction”.
